We go through 37 sequences from the supplement of paper PMC10567573.

The data set is described as follows: protein stability index of a GFP-peptide fusion (GPS, HEK-293T) (PSI 1-6); higher = more stable. To be noted: c terminus: a fixed tail appended.

± gives the standard deviation.
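Note: 24-mer peptide tiles fused after GFP, lentivirally expressed, FACS-sorted into six equal bins by GFP/DsRed ratio, decoded by Illumina sequencing, PSI is the read-weighted mean bin number.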

Take SAETSGGLLICLPREQAARFCSEI [SEPHS2]: the protein stability index is, setting by setting: (treatment: DMSO) 2.31 ± 0.27; (treatment: MLN4924 1 uM, 8 h) 2.18 ± 0.26.

In the case of ACRFQEDQEMARDLVERALYSMEC [TCF25], the protein stability index by setting is: (treatment: DMSO) 2.34 ± 0.57; (treatment: MLN4924 1 uM, 8 h) 2.49 ± 0.53.

As for DDWEDDYDYPEEEQLSGAGYRVSA [EID1], the protein stability index was determined as 4.9 ± 0.29 (treatment: DMSO) and 5.04 ± 0.21 (treatment: MLN4924 1 uM, 8 h).

For QAPKSKSGSRPRKPPPRKHTRSWA [LRRC59], the protein stability index reads like this: (treatment: DMSO) 4.05 ± 0.21; (treatment: MLN4924 1 uM, 8 h) 4.15 ± 0.29.

As for LLSLDPVQDKTPLYSQLLQAYKWS [MED27], the protein stability index came out at 2.04 ± 0.22 (treatment: DMSO) and 1.97 ± 0.2 (treatment: MLN4924 1 uM, 8 h).

PLTSHILRAFVNSQIQGHKEMSKV [SNX8] showed a protein stability index (treatment: DMSO) of 2.3 ± 0.36 and a protein stability index (treatment: MLN4924 1 uM, 8 h) of 2.21 ± 0.3.

As to SDYESIEVPDSYTGPRLSFPLLPD [PPEF2], the protein stability index reads like this: (treatment: DMSO) 4.13 ± 0.19; (treatment: MLN4924 1 uM, 8 h) 4.09 ± 0.15.

As to NVTRHQAECALNERGVEGDFLIRD [NCK2], the protein stability index runs as follows: (treatment: DMSO) 4.35 ± 0.27; (treatment: MLN4924 1 uM, 8 h) 4.5 ± 0.31.

For the sequence TPTSLSSLSNAVANTMEHLSLLDN [FBXO33], the protein stability index reads like this: (treatment: DMSO) 4.44 ± 0.065; (treatment: MLN4924 1 uM, 8 h) 4.44 ± 0.21.

For the sequence SNPNGNGGFMGYSAENIPGCSSSG [CRY1], the protein stability index (treatment: DMSO) came out at 4.57 ± 0.24 and the protein stability index (treatment: MLN4924 1 uM, 8 h) was 4.34 ± 0.35.

Take QDVTVVGSAGRLLAVGTDLYGQRN [GFOD1]: the protein stability index came to 3.4 ± 0.26 (treatment: DMSO) and 3.63 ± 0.32 (treatment: MLN4924 1 uM, 8 h).

Turning to YRFLLYGLHEGKRLGPLSAEGTTG [TNXB], the protein stability index is, setting by setting: (treatment: DMSO) 2.8 ± 0.62; (treatment: MLN4924 1 uM, 8 h) 2.29 ± 0.31.

As to IQEAQSAWKDDFALNSMLRRRFRE [YJU2B], the protein stability index amounted to 3.53 ± 0.14 (treatment: DMSO) and 3.69 ± 0.25 (treatment: MLN4924 1 uM, 8 h).

On to EAANLLIPAVGSSLSEALDLIESD [MYBL2], for which the protein stability index by setting is: (treatment: DMSO) 4.81 ± 0.14; (treatment: MLN4924 1 uM, 8 h) 4.72 ± 0.2.

FVGYNPYSHLAYNNYRLGGNPSTN [SMARCE1]: the protein stability index stood at 2.87 ± 0.21 (treatment: DMSO) and 2.54 ± 0.2 (treatment: MLN4924 1 uM, 8 h).

In the case of RGGDGEVASAPLQPPVPSLSEVKP [TRADD], the protein stability index by setting is: (treatment: DMSO) 5.34 ± 0.36; (treatment: MLN4924 1 uM, 8 h) 5.04 ± 0.58.

As to MASPDDPLRADHMVKEPVEDTDPS [EDARADD], the protein stability index (treatment: DMSO) turned out to be 5.52 ± 0.17 and the protein stability index (treatment: MLN4924 1 uM, 8 h) is 5.63 ± 0.2.

GSSGPAGLTLGRSFSNYRPFEPQA [SEPHS2]: the protein stability index turned out to be 3.22 ± 0.12 (treatment: DMSO) and 3.28 ± 0.16 (treatment: MLN4924 1 uM, 8 h).

Regarding MLLGVPRLRQLKVRNDSCVVHEDF [PKD2L1], the protein stability index by setting is: (treatment: DMSO) 2.46 ± 0.33; (treatment: MLN4924 1 uM, 8 h) 2.52 ± 0.32.

For the sequence LRNNQISHKGAEELALALKGNTTL [LRRC45], the protein stability index reads like this: (treatment: DMSO) 3.92 ± 0.14; (treatment: MLN4924 1 uM, 8 h) 4.05 ± 0.21.

FQDKRNLYLIMEFLPGGDMMTLLM [STK38L] registered a protein stability index (treatment: DMSO) of 3.34 ± 0.31.

PLEAMYMQCPVIAVNSGGPLESID [ALG2] had a protein stability index (treatment: DMSO) of 3.61 ± 0.33 and a protein stability index (treatment: MLN4924 1 uM, 8 h) of 3.86 ± 0.22.

Regarding NKCSGMRFPLQEENSVTHHEVKCQ [KMT5A], the protein stability index reads like this: (treatment: DMSO) 4.79 ± 0.42; (treatment: MLN4924 1 uM, 8 h) 4.61 ± 0.37.

YSSNQLHHFFCDIAPVLKLASHHN [OR10K2] had a protein stability index (treatment: DMSO) of 2.59 ± 0.72 and a protein stability index (treatment: MLN4924 1 uM, 8 h) of 2.17 ± 0.38.

Take EVFEGREDSIFGDPKKLLTQYFVQ [MAGEA6]: the protein stability index reads like this: (treatment: DMSO) 2.34 ± 0.18; (treatment: MLN4924 1 uM, 8 h) 2.46 ± 0.18.

On to RFAWPKVLKISYKRNNFYIKIRPG [EPB41L3], for which the protein stability index was 2.89 ± 0.63 (treatment: DMSO) and 2.2 ± 0.82 (treatment: MLN4924 1 uM, 8 h).

GYSTPADIWSTACMAFELATGDYL [SRPK2] registered a protein stability index (treatment: DMSO) of 2.1 ± 0.33 and a protein stability index (treatment: MLN4924 1 uM, 8 h) of 2.54 ± 0.5.

In the case of IDSYDPSTGEVYCRVPNSGKDEIE [ALDH8A1], the protein stability index was 4.97 ± 0.2 (treatment: DMSO) and 4.92 ± 0.2 (treatment: MLN4924 1 uM, 8 h).

For DPACYEFLWGPRALVETSYVKVLH [MAGEA3], the protein stability index reads like this: (treatment: DMSO) 2.12 ± 0.2; (treatment: MLN4924 1 uM, 8 h) 2.12 ± 0.36.

QCIECGKSFNRHCNLIRHQKIHTV [ZSCAN9]: the protein stability index worked out at 3.37 ± 0.3 (treatment: DMSO) and 3.36 ± 0.38 (treatment: MLN4924 1 uM, 8 h).

With FGEDYYGPSRSRHRRRSRERGPYR [CLK3], the protein stability index by setting is: (treatment: DMSO) 3.27 ± 0.78; (treatment: MLN4924 1 uM, 8 h) 4.29 ± 0.89.

NIWASQSVLSACDNLSDLVMVRWN [IQUB] yielded a protein stability index (treatment: DMSO) of 2.14 ± 0.11 and a protein stability index (treatment: MLN4924 1 uM, 8 h) of 2.27 ± 0.46.

As for GGSGGGAGGAGGGVTEEQEGFADG [JUNB], the protein stability index was 5.5 ± 0.087 (treatment: DMSO) and 5.42 ± 0.43 (treatment: MLN4924 1 uM, 8 h).

For RVFRVTFLMLAVSLTVPLLGAMML [APMAP], the protein stability index by setting is: (treatment: DMSO) 2.2 ± 0.43; (treatment: MLN4924 1 uM, 8 h) 2.4 ± 0.55.

Consider GYVANSSNCISGVCSVRGGEGRSR [KRT71], for which the protein stability index is 3.47 ± 0.2 (treatment: DMSO) and 3.73 ± 0.43 (treatment: MLN4924 1 uM, 8 h).

IRVKIADLGNACWVHKHFTEDIQT [SRPK2]: the protein stability index by setting is: (treatment: DMSO) 2.43 ± 0.5; (treatment: MLN4924 1 uM, 8 h) 2.26 ± 0.57.

As for NHLPDPEIFRQRFRQFGYQDSPGP [ZNF24], the protein stability index reads like this: (treatment: DMSO) 3.54 ± 0.29; (treatment: MLN4924 1 uM, 8 h) 3.48 ± 0.3.
